Laboratory results from paper PMC2920069, “KTN (RCK) Domains Regulate K^+ Channels and Transporters by Controlling the Dimer-Hinge Conformation” (Structure(London, England:1993), 2009).

Tests used:
[1] = molecular target: the molecule itself; test: native gel or EMSA; blue native PAGE (Novex 4-16% BisTris) of membranes solubilized with 1.5% dodecylmaltoside, without KefF; western blot with anti-His6; factor 1.8 for true mass:mobility-based mass
[2] = molecular target: the molecule itself; test: SEC-MALS; size exclusion chromatography with in-line MiniDAWN TREOS light scattering and refractive index detection; 50 mM HEPES pH 7.5, 150 mM KCl, 1 mM DTT or TCEP; with and without GSH, S-lactoyl-GSH or N-ethylsuccinimido-S-glutathione and NAD+ or NADH (1 mM)

Protein | stoichiometry N [1] | stoichiometry N [2]
full-length recombinant KefC (natural protein, E. coli, UniProt P03819 1-620, looked up, E. coli KefC glutathione-gated K+ efflux system, full length; Blue native PAGE was done without KefF; Also used here as the wild-type KefC of the efflux experiments (plasmids pSM12 and pKefFKefCHis6 in E. coli MJF335); also called whole KefC channels; source: E. coli, overexpressed, bacterial membranes solubilized with 1.5% dodecylmaltoside) MDSHTLIQALIYLGSAALIVPIAVRLGLGSVLGYLIAGCIIGPWGLRLVTDAESILHFAEIGVVLMLFIIGLELDPQRLWKLRAAVFGCGALQMVICGGLLGLFCMLLGLRWQVAELIGMTLALSSTAIAMQAMNERNLMVTQMGRSAFAVLLFQDIAAIPLVAMIPLLATSSASTTMGAFALSALKVAGALVLVVLLGRYVTRPALRFVARSGLREVFSAVALFLVFGFGLLLEEVGLSMAMGAFLAGVLLASSEYRHALESDIEPFKGLLLGLFFIGVGMSIDFGTLLENPLRIVILLLGFLIIKIAMLWLIARPLQVPNKQRRWFAVLLGQGSEFAFVVFGAAQMANVLEPEWAKSLTLAVALSMAATPILLVILNRLEQSSTEEAREADEIDEEQPRVIIAGFGRFGQITGRLLLSSGVKMVVLDHDPDHIETLRKFGMKVFYGDATRMDLLESAGAAKAEVLINAIDDPQTNLQLTEMVKEHFPHLQIIARARDVDHYIRLRQAGVEKPERETFEGALKTGRLALESLGLGPYEARERADVFRRFNIQMVEEMAMVENDTKARAAVYKRTSAMLSEIITEDREHLSLIQRHGWQGTEEGKHTGNMADEPETKPSS | 2 | –
KefC-CTD:KefF fusion protein (complex, E. coli, synthetic flexible 12-residue linker with a thrombin motif that is not cleaved under the conditions used; KefF, ancillary subunit of the E. coli KefC system, full length; pET-28-derived vector; tag removed with thrombin overnight at 4 °C; also called KefC-CTD/KefF complex; fusion complex; source: E. coli BL21(DE3), purified (Ni-NTA with imidazole gradient, Superdex 200 gel filtration); not shown: …) RVIIAGFGRFGQITGRLLLSSGVKMVVLDHDPDHIETLRKFGMKVFYGDATRMDLLESAGAAKAEVLINAIDDPQTNLQLTEMVKEHFPHLQIIARARDVDHYIRLRQAGVEKPERETFEGALKTGRLALESLGLGPYEARERADVFRRFNIQMVEEMAMVENDTKARAAVYKRTSAMLSEIITEDREHLSLIQRHGWQGTEEGKHTGNMADEPETKPSSTSGGLVPRGSSGMILIIYAHPYPHHSHANKRMLEQARTLEGVEIRSLYQLYPDFNIDIAAEQEALSRADLIVWQHPMQWYSIPPLLKLWIDKVFSHGWAYGHGGTALHGKHLLWAVTTGGGESHFEIGAHPGFDVLSQPLQATAIYCGLNWLPPFAMHCTFICDDETLEGQARHYKQRLLEWQEAHHG | – | 2
